System: Bacillus subtilis
Experiment: cleaved RNA product abundance (RNA/gDNA barcode ratio) relative to median wild-type variant (ratio to wild type); higher = more accumulation of the downstream cleavage product
Details: experiment (reporter, strain, medium): exp 8a: truncated aprE reporter, strain BJT201 with 2% xylose (RNase J1 expressed); cleavage site: glnRA (positions -5 to +31 mutated)
Procedure, shortened: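 Cleaved product abundance was measured with barcoded reporter mRNAs (truncated aprE or tetM) carrying mutagenized RNase Y cleavage-site windows in the B. subtilis chromosome. Cultures in LB at 37°C grew from OD600 0.0003 to 0.3. Gel-selected cleaved RNA was reverse transcribed and barcode-sequenced with genomic DNA barcodes, and the RNA:gDNA barcode ratio per construct was scaled to the median construct bearing the unmutated site.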

First: CGACATGTCCCGCTTCTTTCATTAATCCATTAGCAACTGTTTTTCTATATACATTTACCTTTTAAGAGGAGGAAT
Second: CGACATGTCCCGCTTCTTTCATTAATCCATTAGCAACTTTTTTGCTATATACATTTACCTTTTAAGAGGAGGAAT
The “cleaved RNA product abundance” value of the first is lower: 0.319 for the first, 0.569 for the second.

First: CGACATGTCCCGCTTCTTTCATTAATCCATTAGCAATTGTTTTGCTATATACATTTACCTTTTAAGAGGAGGAAT
Second: CGACATGTCCCGCTTCTTTCATTAATCCATTAGCAGCTGTTTTGCTATATACATTTACCTTTTAAGAGGAGGAAT
The “cleaved RNA product abundance” value of the first is higher: 0.776 for the first, 0.324 for the second.

First: CGACATGTCCCGCTTCTTTCATTAATCCATTAGCCACTGTTTTGCTATATACATTTACCTTTTAAGAGGAGGAAT
Second: CGACATGTCCCGCTTCTTTCATTAATCCATTATCAACTGTTTTGCTATATACATTTACCTTTTAAGAGGAGGAAT
The “cleaved RNA product abundance” value of the first is higher: 0.271 for the first, 0.224 for the second.

First: CGACATGTCCCGCTTCTTTCATTAATCCATTATCAACTTTTTTGCTATATACATTTACCTTTTAAGAGGAGGAAT
Second: CGACATGTCCCGCTTCTTTCATTAATCCATTTGCAACTGTTTTGCTATATACATTTACCTTTTAAGAGGAGGAAT
The “cleaved RNA product abundance” value of the first is higher: 0.311 for the first, 0.236 for the second.

First: CGACATGTCCCGCTTCTTTCATTAATCCCGTTAGCAACTGTTTTGCTATATACATTTACCTTTTAAGAGGAGGAA
Second: CGACATGTCCCGCTTCTTTCATTAATCCCTAAGCAACTGTTTTGCTATATACATTTACCTTTTAAGAGGAGGAAT
The “cleaved RNA product abundance” value of the first is higher: 1.01 for the first, 0.229 for the second.

Compared with “CGACATGTCCCGCTTCTTTCATTAATCCCTTAACAACTGTATTGCTATATACATTTACCTTTTAAGAGGAGGAAT”, “CGACATGTCCCGCTTCTTTCATTAATCCCTTACCAACTGTTTTGCTATATACATTTACCTTTTAAGAGGAGGAAT” is higher in “cleaved RNA product abundance” value: 0.142 for the first, 0.187 for the second.

Going from “CGACATGTCCCGCTTCTTTCATTAATCCCTTAGAAACTGTTTTGCTATATACATTTACCTTTTAAGAGGAGGAAT” to “CGACATGTCCCGCTTCTTTCATTAATCCCTTAGCAACTATTTTGCTATATACATTTACCTTTTAAGAGGAGGAAT”, the “cleaved RNA product abundance” value rises from 0.173 to 0.323.

First: CGACATGTCCCGCTTCTTTCATTAATCCCTTAGCAACTCTTTTGCTATATACATTTACCTTTTAAGAGGAGGAAT
Second: CGACATGTCCCGCTTCTTTCATTAATCCCTTAGCAACTGATTTGCTATATACATTTACCTTTTAAGAGGAGGAAT
The “cleaved RNA product abundance” value of the first is lower: 0.0915 for the first, 0.25 for the second.

First: CGACATGTCCCGCTTCTTTCATTAATCCCTTAGCAACTGTTTAGCTATATACATTTACCTTTTAAGAGGAGGAAT
Second: CGACATGTCCCGCTTCTTTCATTAATCCCTTAGCAACTGTTTGGCTATATACATTTACCTTTTAAGAGGAGGAAT
The “cleaved RNA product abundance” value of the first is higher: 0.236 for the first, 0.204 for the second.

Going from “CGACATGTCCCGCTTCTTTCATTAATCCCTTAGCAACTGTTTTACTATATACATTTACCTTTTAAGAGGAGGAAT” to “CGACATGTCCCGCTTCTTTCATTAATCCCTTAGCAACTGTTTTCCTATATACATTTACCTTTTAAGAGGAGGAAT”, the “cleaved RNA product abundance” value rises from 0.0875 to 0.214.

Compared with “CGACATGTCCCGCTTCTTTCATTAATCCCTTAGCAACTGTTTTGATATATACATTTAACTTTTAAGAGGAGGAAT”, “CGACATGTCCCGCTTCTTTCATTAATCCCTTAGCAACTGTTTTGCTAAATACATTTACCTTTTAAGAGGAGGAAT” is lower in “cleaved RNA product abundance” value: 0.245 for the first, 0.149 for the second.

Compared with “CGACATGTCCCGCTTCTTTCATTAATCCCTTAGCAACTGTTTTGCTAGATACATTTACCTTTTAAGAGGAGGAAT”, “CGACATGTCCCGCTTCTTTCATTAATCCCTTAGCAACTGTTTTGCTATATACAATTACCTTTTAAGAGGAGGAAT” is higher in “cleaved RNA product abundance” value: 0.127 for the first, 0.305 for the second.

Going from “CGACATGTCCCGCTTCTTTCATTAATCCCTTAGCAACTGTTTTGCTATATACACTTAACTTTTAAGAGGAGGAAT” to “CGACATGTCCCGCTTCTTTCATTAATCCCTTAGCAACTGTTTTGCTATATACATATACCTTTTAAGAGGAGGAAT”, the “cleaved RNA product abundance” value rises from 0.255 to 0.267.

Compared with “CGACATGTCCCGCTTCTTTCATTAATCCCTTAGCAACTGTTTTGCTATATACATTTAACTTTTAAGAGGAGGAAT”, “CGACATGTCCCGCTTCTTTCATTAATCCCTTAGCAACTGTTTTGCTATATACATTTACATTTTAAGAGGAGGAAT” is higher in “cleaved RNA product abundance” value: 0.237 for the first, 0.242 for the second.

Compared with “CGACATGTCCCGCTTCTTTCATTAATCCCTTAGCAACTGTTTTGCTATATACATTTACCTTTTAAGAGGAGGAAT”, “CGACATGTCCCGCTTCTTTCATTAATCCCTTAGCAACTGTTTTGCTATATACATTTACTTTTTAAGAGGAGGAAT” is lower in “cleaved RNA product abundance” value: 0.213 for the first, 0.19 for the second.

Compared with “CGACATGTCCCGCTTCTTTCATTAATCCCTTAGCAACTGTTTTGCTATATACTTTTACCTTTTAAGAGGAGGAAT”, “CGACATGTCCCGCTTCTTTCATTAATCCCTTAGCAACTGTTTTGCTATATAGATTTACCTTTTAAGAGGAGGAAT” is higher in “cleaved RNA product abundance” value: 0.166 for the first, 0.355 for the second.

Compared with “CGACATGTCCCGCTTCTTTCATTAATCCCTTAGCAACTGTTTTGCTATATATATTTACCTTTTAAGAGGAGGAAT”, “CGACATGTCCCGCTTCTTTCATTAATCCCTTAGCAACTGTTTTGCTATATTCATTTACCTTTTAAGAGGAGGAAT” is lower in “cleaved RNA product abundance” value: 0.163 for the first, 0.153 for the second.

Compared with “CGACATGTCCCGCTTCTTTCATTAATCCCTTAGCAACTGTTTTGCTGTATACATTTACCTTTTAAGAGGAGGAAT”, “CGACATGTCCCGCTTCTTTCATTAATCCCTTAGCAACTGTTTTTCTATATACATTTACCTTTTAAGAGGAGGAAT” is higher in “cleaved RNA product abundance” value: 0.108 for the first, 0.163 for the second.

Going from “CGACATGTCCCGCTTCTTTCATTAATCCCTTATCAACTGTTTTGCTATATACATTTACCTTTTAAGAGGAGGAAT” to “CGACATGTCCCGCTTCTTTCATTAATCCGAAAGCAACTGTTTTGCTATATACATTTACCTTTTAAGAGGAGGAAT”, the “cleaved RNA product abundance” value rises from 0.249 to 0.39.

Going from “CGACATGTCCCGCTTCTTTCATTAATCCGACAGCAACTGTTTTGCTATATACATTTACCTTTTAAGAGGAGGAAT” to “CGACATGTCCCGCTTCTTTCATTAATCCGATAACAACTGTTTTGCTATATACATTTACCTTTTAAGAGGAGGAAT”, the “cleaved RNA product abundance” value falls from 0.335 to 0.201.

First: CGACATGTCCCGCTTCTTTCATTAATCCGATACCAACTGTTTTGCTATATACATTTACCTTTTAAGAGGAGGAAT
Second: CGACATGTCCCGCTTCTTTCATTAATCCGATAGAAACTGTTTTGCTATATACATTTACCTTTTAAGAGGAGGAAT
The “cleaved RNA product abundance” value of the first is higher: 0.304 for the first, 0.302 for the second.

Compared with “CGACATGTCCCGCTTCTTTCATTAATCCGATAGCAAATGTTTTGCTATATACATTTACCTTTTAAGAGGAGGAAT”, “CGACATGTCCCGCTTCTTTCATTAATCCGATAGCAACTCTTTTGCTATATACATTTACCTTTTAAGAGGAGGAAT” is lower in “cleaved RNA product abundance” value: 0.41 for the first, 0.19 for the second.

Going from “CGACATGTCCCGCTTCTTTCATTAATCCGATAGCAACTGCTTTGCTATATACATTTACCTTTTAAGAGGAGGAAT” to “CGACATGTCCCGCTTCTTTCATTAATCCGATAGCAACTGTTTAGCTATATACATTTACCTTTTAAGAGGAGGAAT”, the “cleaved RNA product abundance” value rises from 0.492 to 0.822.

Going from “CGACATGTCCCGCTTCTTTCATTAATCCGATAGCAACTGTTTTACTATATACATTTACCTTTTAAGAGGAGGAAT” to “CGACATGTCCCGCTTCTTTCATTAATCCGATAGCAACTGTTTTCCTATATAAGCTTACCTTTTAAGAGGAGGAAT”, the “cleaved RNA product abundance” value falls from 0.459 to 0.295.

First: CGACATGTCCCGCTTCTTTCATTAATCCGATAGCAACTGTTTTGATATATACATTTACCTTTTAAGAGGAGGAAT
Second: CGACATGTCCCGCTTCTTTCATTAATCCGATAGCAACTGTTTTGCTAGATACATTTACCTTTTAAGAGGAGGAAT
The “cleaved RNA product abundance” value of the first is lower: 0.325 for the first, 0.354 for the second.

Reference: the supplement of paper PMC11780869
